Measurements from patent US20240117334A1, “FACTOR B PROTEASES” (Vertex Pharmaceuticals Incorporated, priority 2021, published 2024).

The binders below were run against Human Factor B (human) (UniProt P00751) (assay: cell-based or functional assay).
Sequence of Human Factor B (human) (P00751 26-764 limits assumed): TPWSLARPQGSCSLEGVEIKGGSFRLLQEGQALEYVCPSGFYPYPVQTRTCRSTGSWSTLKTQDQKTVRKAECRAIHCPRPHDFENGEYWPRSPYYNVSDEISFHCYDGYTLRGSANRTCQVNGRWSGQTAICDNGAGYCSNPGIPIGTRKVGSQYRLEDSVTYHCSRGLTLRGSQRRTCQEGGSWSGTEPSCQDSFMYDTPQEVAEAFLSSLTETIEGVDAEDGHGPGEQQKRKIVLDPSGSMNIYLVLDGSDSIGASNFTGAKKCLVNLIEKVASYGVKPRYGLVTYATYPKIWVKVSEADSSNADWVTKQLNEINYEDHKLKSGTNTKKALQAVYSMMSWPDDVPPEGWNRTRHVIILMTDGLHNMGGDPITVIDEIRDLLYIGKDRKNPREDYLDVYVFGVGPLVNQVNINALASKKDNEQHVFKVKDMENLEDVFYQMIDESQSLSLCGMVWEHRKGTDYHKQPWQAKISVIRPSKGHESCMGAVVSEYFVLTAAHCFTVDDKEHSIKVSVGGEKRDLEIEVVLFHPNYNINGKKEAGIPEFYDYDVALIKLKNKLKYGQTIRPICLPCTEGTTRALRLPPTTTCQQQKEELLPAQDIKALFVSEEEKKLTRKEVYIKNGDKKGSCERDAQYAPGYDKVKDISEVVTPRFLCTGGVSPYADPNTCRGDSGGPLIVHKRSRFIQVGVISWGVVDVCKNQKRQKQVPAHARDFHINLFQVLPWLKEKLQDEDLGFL

fB Cleavage EC50 | fB Cleavage, 80% plasma EC50 | Binder
7.98 µM |  | chymase C22S/S189T/A226R (enzyme) IIGGTESKPHSRPYMAYLEIVTSNGPSKFCGGFLIRRNFVLTAAHCAGRSITVTLGAHNITEEEDTWQKLEVIKQFRHPKYNTSTLHHDIMLLKLKEKASLTLAVGTLPFPSQFNFVPPGRMCRVAGWGRTGVLKPGSDTLQEVKLRLMDPQACSHFRDFDHNLQLCVGNPRKTKTAFKGDSGGPLLCAGVAQGIVSYGRSDAKPPRVFTRISHYRPWINQILQAN
0.65 µM | 21 µM | chymase C22S/F173Y/A226R (enzyme) IIGGTESKPHSRPYMAYLEIVTSNGPSKFCGGFLIRRNFVLTAAHCAGRSITVTLGAHNITEEEDTWQKLEVIKQFRHPKYNTSTLHHDIMLLKLKEKASLTLAVGTLPFPSQFNFVPPGRMCRVAGWGRTGVLKPGSDTLQEVKLRLMDPQACSHYRDFDHNLQLCVGNPRKTKSAFKGDSGGPLLCAGVAQGIVSYGRSDAKPPRVFTRISHYRPWINQILQAN
0.83 µM |  | chymase C22S/S218I/A226R (enzyme) IIGGTESKPHSRPYMAYLEIVTSNGPSKFCGGFLIRRNFVLTAAHCAGRSITVTLGAHNITEEEDTWQKLEVIKQFRHPKYNTSTLHHDIMLLKLKEKASLTLAVGTLPFPSQFNFVPPGRMCRVAGWGRTGVLKPGSDTLQEVKLRLMDPQACSHFRDFDHNLQLCVGNPRKTKSAFKGDSGGPLLCAGVAQGIVSYGRIDAKPPRVFTRISHYRPWINQILQAN

The binders below were run against EGVD/AE-ACT (assay: reaction of the protease with the serpin bait EGVD/AE-ACT).

Binder | k*app (second order rate constant)
chymase F41V/L99H/G151V/F173Y/Y215K/R217G/A226R (enzyme) IIGGTECKPHSRPYMAYLEIVTSNGPSKVCGGFLIRRNFVLTAAHCAGRSITVTLGAHNITEEEDTWQKLEVIKQFRHPKYNTSTHHHDIMLLKLKEKASLTLAVGTLPFPSQFNFVPPGRMCRVAGWGRTGVLKPVSDTLQEVKLRLMDPQACSHYRDFDHNLQLCVGNPRKTKSAFKGDSGGPLLCAGVAQGIVSKGGSDAKPPRVFTRISHYRPWINQILQAN | 649
chymase C22S/A226R (enzyme) IIGGTESKPHSRPYMAYLEIVTSNGPSKFCGGFLIRRNFVLTAAHCAGRSITVTLGAHNITEEEDTWQKLEVIKQFRHPKYNTSTLHHDIMLLKLKEKASLTLAVGTLPFPSQFNFVPPGRMCRVAGWGRTGVLKPGSDTLQEVKLRLMDPQACSHFRDFDHNLQLCVGNPRKTKSAFKGDSGGPLLCAGVAQGIVSYGRSDAKPPRVFTRISHYRPWINQILQAN | 77
chymase C22S (enzyme) IIGGTESKPHSRPYMAYLEIVTSNGPSKFCGGFLIRRNFVLTAAHCAGRSITVTLGAHNITEEEDTWQKLEVIKQFRHPKYNTSTLHHDIMLLKLKEKASLTLAVGTLPFPSQFNFVPPGRMCRVAGWGRTGVLKPGSDTLQEVKLRLMDPQACSHFRDFDHNLQLCVGNPRKTKSAFKGDSGGPLLCAGVAQGIVSYGRSDAKPPAVFTRISHYRPWINQILQAN | 30.2
chymase C22S/F41R/L99G/G151T/F173Y/Y215R/R217M/A226R (enzyme) IIGGTESKPHSRPYMAYLEIVTSNGPSKRCGGFLIRRNFVLTAAHCAGRSITVTLGAHNITEEEDTWQKLEVIKQFRHPKYNTSTGHHDIMLLKLKEKASLTLAVGTLPFPSQFNFVPPGRMCRVAGWGRTGVLKPTSDTLQEVKLRLMDPQACSHYRDFDHNLQLCVGNPRKTKSAFKGDSGGPLLCAGVAQGIVSRGMSDAKPPRVFTRISHYRPWINQILQAN | 773
chymase C22S/F41V/L99H/G151R/F173L/Y215R/R217T/A226R (enzyme) IIGGTESKPHSRPYMAYLEIVTSNGPSKVCGGFLIRRNFVLTAAHCAGRSITVTLGAHNITEEEDTWQKLEVIKQFRHPKYNTSTHHHDIMLLKLKEKASLTLAVGTLPFPSQFNFVPPGRMCRVAGWGRTGVLKPRSDTLQEVKLRLMDPQACSHLRDFDHNLQLCVGNPRKTKSAFKGDSGGPLLCAGVAQGIVSRGTSDAKPPRVFTRISHYRPWINQILQAN | 1130
chymase C22S/F41I/L99W/G151L/F173K/R217S/A226R (enzyme) IIGGTESKPHSRPYMAYLEIVTSNGPSKICGGFLIRRNFVLTAAHCAGRSITVTLGAHNITEEEDTWQKLEVIKQFRHPKYNTSTWHHDIMLLKLKEKASLTLAVGTLPFPSQFNFVPPGRMCRVAGWGRTGVLKPLSDTLQEVKLRLMDPQACSHKRDFDHNLQLCVGNPRKTKSAFKGDSGGPLLCAGVAQGIVSYGSSDAKPPRVFTRISHYRPWINQILQAN | 1730
chymase C22S/F41R/L99Y/G151T/F173K/R217S/A226R (enzyme) IIGGTESKPHSRPYMAYLEIVTSNGPSKRCGGFLIRRNFVLTAAHCAGRSITVTLGAHNITEEEDTWQKLEVIKQFRHPKYNTSTYHHDIMLLKLKEKASLTLAVGTLPFPSQFNFVPPGRMCRVAGWGRTGVLKPTSDTLQEVKLRLMDPQACSHKRDFDHNLQLCVGNPRKTKSAFKGDSGGPLLCAGVAQGIVSYGSSDAKPPRVFTRISHYRPWINQILQAN | 684
chymase C22S/L99H/F173I/K192R/Y215K/R217T/S218I/A226R (enzyme) IIGGTESKPHSRPYMAYLEIVTSNGPSKFCGGFLIRRNFVLTAAHCAGRSITVTLGAHNITEEEDTWQKLEVIKQFRHPKYNTSTHHHDIMLLKLKEKASLTLAVGTLPFPSQFNFVPPGRMCRVAGWGRTGVLKPGSDTLQEVKLRLMDPQACSHIRDFDHNLQLCVGNPRKTKSAFRGDSGGPLLCAGVAQGIVSKGTIDAKPPRVFTRISHYRPWINQILQAN | 1040
chymase C22S/K192R/A226R (enzyme) IIGGTESKPHSRPYMAYLEIVTSNGPSKFCGGFLIRRNFVLTAAHCAGRSITVTLGAHNITEEEDTWQKLEVIKQFRHPKYNTSTLHHDIMLLKLKEKASLTLAVGTLPFPSQFNFVPPGRMCRVAGWGRTGVLKPGSDTLQEVKLRLMDPQACSHFRDFDHNLQLCVGNPRKTKSAFRGDSGGPLLCAGVAQGIVSYGRSDAKPPRVFTRISHYRPWINQILQAN | 147
chymase C22S/F41V/L99F/G151R/F173K/R217S/A226R (enzyme) IIGGTESKPHSRPYMAYLEIVTSNGPSKVCGGFLIRRNFVLTAAHCAGRSITVTLGAHNITEEEDTWQKLEVIKQFRHPKYNTSTFHHDIMLLKLKEKASLTLAVGTLPFPSQFNFVPPGRMCRVAGWGRTGVLKPRSDTLQEVKLRLMDPQACSHKRDFDHNLQLCVGNPRKTKSAFKGDSGGPLLCAGVAQGIVSYGSSDAKPPRVFTRISHYRPWINQILQAN | 652
chymase C22S/F41V/L99W/G151L/F173K/R217S/A226R (enzyme) IIGGTESKPHSRPYMAYLEIVTSNGPSKVCGGFLIRRNFVLTAAHCAGRSITVTLGAHNITEEEDTWQKLEVIKQFRHPKYNTSTWHHDIMLLKLKEKASLTLAVGTLPFPSQFNFVPPGRMCRVAGWGRTGVLKPLSDTLQEVKLRLMDPQACSHKRDFDHNLQLCVGNPRKTKSAFKGDSGGPLLCAGVAQGIVSYGSSDAKPPRVFTRISHYRPWINQILQAN | 1360
chymase C22S/F41R/L99H/G151T/F173Y/Y215K/R217M/A226R (enzyme) IIGGTESKPHSRPYMAYLEIVTSNGPSKRCGGFLIRRNFVLTAAHCAGRSITVTLGAHNITEEEDTWQKLEVIKQFRHPKYNTSTHHHDIMLLKLKEKASLTLAVGTLPFPSQFNFVPPGRMCRVAGWGRTGVLKPTSDTLQEVKLRLMDPQACSHYRDFDHNLQLCVGNPRKTKSAFKGDSGGPLLCAGVAQGIVSKGMSDAKPPRVFTRISHYRPWINQILQAN | 1500

The binders below were run against alpha-2-marcroglobin (A2M) (UniProt P01023) (assay: inhibition of the protease by the plasma inhibitor).
Sequence of alpha-2-marcroglobin (A2M) (P01023 24-1474): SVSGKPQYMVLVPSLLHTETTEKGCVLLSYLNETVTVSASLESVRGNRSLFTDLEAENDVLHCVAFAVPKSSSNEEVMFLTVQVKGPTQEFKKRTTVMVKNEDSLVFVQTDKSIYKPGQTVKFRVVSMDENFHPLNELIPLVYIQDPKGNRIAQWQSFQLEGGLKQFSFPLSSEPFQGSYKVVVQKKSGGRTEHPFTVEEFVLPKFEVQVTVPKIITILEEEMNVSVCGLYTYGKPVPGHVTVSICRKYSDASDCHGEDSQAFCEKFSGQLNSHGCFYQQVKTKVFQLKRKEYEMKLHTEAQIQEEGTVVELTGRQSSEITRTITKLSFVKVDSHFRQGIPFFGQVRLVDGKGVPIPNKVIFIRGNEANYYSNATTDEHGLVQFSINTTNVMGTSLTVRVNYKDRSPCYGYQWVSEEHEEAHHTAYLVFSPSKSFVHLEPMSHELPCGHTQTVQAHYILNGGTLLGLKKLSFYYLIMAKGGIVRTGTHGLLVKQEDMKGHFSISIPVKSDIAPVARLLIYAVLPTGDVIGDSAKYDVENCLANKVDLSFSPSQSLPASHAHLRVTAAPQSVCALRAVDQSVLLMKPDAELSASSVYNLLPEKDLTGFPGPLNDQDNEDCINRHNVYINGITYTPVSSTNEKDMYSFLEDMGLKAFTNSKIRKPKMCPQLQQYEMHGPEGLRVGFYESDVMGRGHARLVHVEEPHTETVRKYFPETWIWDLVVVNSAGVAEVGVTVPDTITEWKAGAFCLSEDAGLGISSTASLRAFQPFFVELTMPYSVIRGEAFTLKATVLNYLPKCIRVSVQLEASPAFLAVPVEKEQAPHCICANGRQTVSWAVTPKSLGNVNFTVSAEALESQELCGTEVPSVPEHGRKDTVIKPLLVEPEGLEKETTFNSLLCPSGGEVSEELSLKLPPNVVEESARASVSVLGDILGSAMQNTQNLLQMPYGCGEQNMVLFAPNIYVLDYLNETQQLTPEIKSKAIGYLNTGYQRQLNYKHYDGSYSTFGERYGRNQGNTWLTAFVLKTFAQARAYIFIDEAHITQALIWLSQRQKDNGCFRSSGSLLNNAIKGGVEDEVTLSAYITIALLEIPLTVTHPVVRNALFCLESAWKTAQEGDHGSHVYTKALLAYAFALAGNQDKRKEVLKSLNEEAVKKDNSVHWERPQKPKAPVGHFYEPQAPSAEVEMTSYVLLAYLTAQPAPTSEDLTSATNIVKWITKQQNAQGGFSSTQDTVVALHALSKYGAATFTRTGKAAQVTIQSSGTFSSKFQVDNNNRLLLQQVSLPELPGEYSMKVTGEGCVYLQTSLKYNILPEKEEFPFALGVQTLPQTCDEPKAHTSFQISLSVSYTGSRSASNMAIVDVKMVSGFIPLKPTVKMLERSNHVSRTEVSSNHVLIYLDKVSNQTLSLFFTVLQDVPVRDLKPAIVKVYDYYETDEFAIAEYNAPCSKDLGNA

kapp | Binder
812 M⁻¹ s⁻¹ | chymase C22S/A226R (enzyme) IIGGTESKPHSRPYMAYLEIVTSNGPSKFCGGFLIRRNFVLTAAHCAGRSITVTLGAHNITEEEDTWQKLEVIKQFRHPKYNTSTLHHDIMLLKLKEKASLTLAVGTLPFPSQFNFVPPGRMCRVAGWGRTGVLKPGSDTLQEVKLRLMDPQACSHFRDFDHNLQLCVGNPRKTKSAFKGDSGGPLLCAGVAQGIVSYGRSDAKPPRVFTRISHYRPWINQILQAN
356 M⁻¹ s⁻¹ | chymase C22S/L99H/F173Y/K192R/S218L/A226R (enzyme) IIGGTESKPHSRPYMAYLEIVTSNGPSKFCGGFLIRRNFVLTAAHCAGRSITVTLGAHNITEEEDTWQKLEVIKQFRHPKYNTSTHHHDIMLLKLKEKASLTLAVGTLPFPSQFNFVPPGRMCRVAGWGRTGVLKPGSDTLQEVKLRLMDPQACSHYRDFDHNLQLCVGNPRKTKSAFRGDSGGPLLCAGVAQGIVSYGRLDAKPPRVFTRISHYRPWINQILQAN
3130 M⁻¹ s⁻¹ | chymase C22S/L99Y/F173Y/K192R/S218L/A226R (enzyme) IIGGTESKPHSRPYMAYLEIVTSNGPSKFCGGFLIRRNFVLTAAHCAGRSITVTLGAHNITEEEDTWQKLEVIKQFRHPKYNTSTYHHDIMLLKLKEKASLTLAVGTLPFPSQFNFVPPGRMCRVAGWGRTGVLKPGSDTLQEVKLRLMDPQACSHYRDFDHNLQLCVGNPRKTKSAFRGDSGGPLLCAGVAQGIVSYGRLDAKPPRVFTRISHYRPWINQILQAN
645 M⁻¹ s⁻¹ | chymase C22S/F173Y/D175N/A226R (enzyme) IIGGTESKPHSRPYMAYLEIVTSNGPSKFCGGFLIRRNFVLTAAHCAGRSITVTLGAHNITEEEDTWQKLEVIKQFRHPKYNTSTLHHDIMLLKLKEKASLTLAVGTLPFPSQFNFVPPGRMCRVAGWGRTGVLKPGSDTLQEVKLRLMDPQACSHYRNFDHNLQLCVGNPRKTKSAFKGDSGGPLLCAGVAQGIVSYGRSDAKPPRVFTRISHYRPWINQILQAN
329 M⁻¹ s⁻¹ | chymase C22S/F41V/L99W/G151L/F173K/R217S/A226R (enzyme) IIGGTESKPHSRPYMAYLEIVTSNGPSKVCGGFLIRRNFVLTAAHCAGRSITVTLGAHNITEEEDTWQKLEVIKQFRHPKYNTSTWHHDIMLLKLKEKASLTLAVGTLPFPSQFNFVPPGRMCRVAGWGRTGVLKPLSDTLQEVKLRLMDPQACSHKRDFDHNLQLCVGNPRKTKSAFKGDSGGPLLCAGVAQGIVSYGSSDAKPPRVFTRISHYRPWINQILQAN
